The values below come from the RNAGym collection of RNA variant scans (doi:10.7554/elife.80360).

Sequences and labels used below:
B1: HDV Ribozyme (parent)
chain: GGCCGGCAUGGUCCCAGCCUCCUCGCUGGCGCCGGCUGGGCAACAUUCCGAGGGGACCGUCCCCUCGGUAAUGGCGAAUGGGACCCA

This data set covers variants of B1. As to the kind of experiment: self-cleavage, relative activity (ratio to wild type); higher = more cleavage; co-transcriptional.
Regarding GGCCGGCAUGGUCCCAGCCUCCUCGCUGGCGCGGGCUGGGCAACAUUCCGAGGGGACCGUCCUCUCGGUAAUGGCGAAUGGGACCCA [C33G C63U], the self-cleavage stood at 0.173.

Take GGCCGGCAUGGUCCCAGCCUCCUCGCUGGCGCGGGCUGGGCAACAUUCCGAGGGGACCGUCCACUCGGUAAUGGCGAAUGGGACCCA [C33G C63A]: the self-cleavage was determined as 0.0475.

For the variant GGCCGGCAUGGUCCCAGCCUCCUCGCUGGCGCGCGCUGGGCAACAUUCCGAGGGGACCGUCCCCUCGGUAAUGGCGAAUGGGACCCA [C33G G34C], the self-cleavage is 0.

Take GGCCGGCAUGGUCCCAGCCUCCUCGCUGGCGCGUGCUGGGCAACAUUCCGAGGGGACCGUCCCCUCGGUAAUGGCGAAUGGGACCCA [C33G G34U]: the self-cleavage was determined as 0.0997.

On to GGCCGGCAUGGUCCCAGCCUCCUCGCUGGCGCGGGCUGGGCAACAUUCCGAGGGGACCGUCCCCUCGAUAAUGGCGAAUGGGACCCA [C33G G68A], for which the self-cleavage is 0.177.

Turning to GGCCGGCAUGGUCCCAGCCUCCUCGCUGGCGCGGGCUGGGCAACAUUCCGAGGGGACCGUCCCCUCGGUAAUAGCGAAUGGGACCCA [C33G G73A], the self-cleavage is 0.0308.

Take GGCCGGCAUGGUCCCAGCCUCCUCGCUGGCGCGGGCUGGGCAACAUUCCGAGGGGACCGUCCCCUCGGUAAUUGCGAAUGGGACCCA [C33G G73U]: the self-cleavage was 0.138.

Regarding GGCCGGCAUGGUCCCAGCCUCCUCGCUGGCGCGGGCUGGGCAACAUUCCGAGGGGACCGUCCCCUCGGUAAUCGCGAAUGGGACCCA [C33G G73C], the self-cleavage was 0.253.

Take GGCCGGCAUGGUCCCAGCCUCCUCGCUGGCGCGGGCUGGGCAACAUUCCGAGGGGACCGUCCCCUUGGUAAUGGCGAAUGGGACCCA [C33G C66U]: the self-cleavage was 0.181.

With GGCCGGCAUGGUCCCAGCCUCCUCGCUGGCGCGGGCUGGGCAACAUUCCGAAGGGACCGUCCCCUCGGUAAUGGCGAAUGGGACCCA [C33G G52A], the self-cleavage came to 0.148.

As to GGCCGGCAUGGUCCCAGCCUCCUCGCUGGCGCGGGCUGGGCAACAUUCCGAGGGGACCGUCGCCUCGGUAAUGGCGAAUGGGACCCA [C33G C62G], the self-cleavage was found to be 0.196.

With GGCCGGCAUGGUCCCAGCCUCCUCGCUGGCGCGGGCUGGGCAACAUUCCGAGGGGACGGUCCCCUCGGUAAUGGCGAAUGGGACCCA [C33G C58G], the self-cleavage came out at 0.185.

Consider GGCCGGCAUGGUCCCAGCCUCCUCGCUGGCGCGGGCUGGGCAACAUUCCGAGGGGACCGUCCCCUCGGUAAUGGCCAAUGGGACCCA [C33G G76C], for which the self-cleavage was determined as 0.229.

For GGCCGGCAUGGUCCCAGCCUCCUCGCUGGCGCGGGCUGGGCAACAUUCCGAGGGGACCGUCCCCUCGGUAAUGGCAAAUGGGACCCA [C33G G76A], the self-cleavage stood at 0.185.

Take GGCCGGCAUGGUCCCAGCCUCCUCGCUGGCGCGGGCUGGGCAACAUUCCUAGGGGACCGUCCCCUCGGUAAUGGCGAAUGGGACCCA [C33G G50U]: the self-cleavage came out at 0.131.

GGCCGGCAUGGUCCCAGCCUCCUCGCUGGCGCGGGCUGUGCAACAUUCCGAGGGGACCGUCCCCUCGGUAAUGGCGAAUGGGACCCA [C33G G39U]: the self-cleavage came out at 0.0692.

On to GGCCGGCAUGGUCCCAGCCUCCUCGCUGGCGCGGGCUGCGCAACAUUCCGAGGGGACCGUCCCCUCGGUAAUGGCGAAUGGGACCCA [C33G G39C], for which the self-cleavage was 0.0386.

Regarding GGCCGGCAUGGUCCCAGCCUCCUCGCUGGCGCGGGCUGGGCAACAGUCCGAGGGGACCGUCCCCUCGGUAAUGGCGAAUGGGACCCA [C33G U46G], the self-cleavage turned out to be 0.208.

Take GGCCGGCAUGGUCCCAGCCUCCUCGCUGGCGCGGGCUGGGCAACACUCCGAGGGGACCGUCCCCUCGGUAAUGGCGAAUGGGACCCA [C33G U46C]: the self-cleavage was 0.185.

In the case of GGCCGGCAUGGUCCCAGCCUCCUCGCUGGCGCGGGCUGGGCAACAUUCCGAGGGGACCGUCCCCUCGGUAAUGGCGAAUGCGACCCA [C33G G81C], the self-cleavage was determined as 0.151.

As to GGCCGGCAUGGUCCCAGCCUCCUCGCUGGCGCGGGCUGGGCAACAUUCCGAGGGGACCGUCCCCUCGGUAAUGGCGAAUGAGACCCA [C33G G81A], the self-cleavage is 0.128.

Regarding GGCCGGCAUGGUCCCAGCCUCCUCGCUGGCGCGGGCUGGGCAACAUUCCGAGGGGAUCGUCCCCUCGGUAAUGGCGAAUGGGACCCA [C33G C57U], the self-cleavage was determined as 0.166.

Turning to GGCCGGCAUGGUCCCAGCCUCCUCGCUGGCGCGGGCUGGGCAACAUUCCGAGGGGAGCGUCCCCUCGGUAAUGGCGAAUGGGACCCA [C33G C57G], the self-cleavage was found to be 0.214.

With GGCCGGCAUGGUCCCAGCCUCCUCGCUGGCGCGGGCUGGGCAACAUUCCGAGGGGAACGUCCCCUCGGUAAUGGCGAAUGGGACCCA [C33G C57A], the self-cleavage was determined as 0.147.

For GGCCGGCAUGGUCCCAGCCUCCUCGCUGGCGCGGGCUGGGCAACAUUCCGAGGGGACCGUCCCCUCGGUAAUGUCGAAUGGGACCCA [C33G G74U], the self-cleavage was determined as 0.173.

Take GGCCGGCAUGGUCCCAGCCUCCUCGCUGGCGCGGGCUGGGCAACAUUCCGAGGGGACCGUCCCCUCGGUAAUGGGGAAUGGGACCCA [C33G C75G]: the self-cleavage was determined as 0.0426.

As for GGCCGGCAUGGUCCCAGCCUCCUCGCUGGCGCGGGCUGGGCAACAUUCCGAGGGGACCGUCCCCUCGGUAAUGGUGAAUGGGACCCA [C33G C75U], the self-cleavage was 0.151.

Take GGCCGGCAUGGUCCCAGCCUCCUCGCUGGCGCGGGCUGGGCAACAUUCCGAGGGGACCGUCCCCUCGGUAAUGGAGAAUGGGACCCA [C33G C75A]: the self-cleavage was determined as 0.0791.

As to GGCCGGCAUGGUCCCAGCCUCCUCGCUGGCGCGGGCUGGGCAACAUUCCGAGGGGACCGUCCCCUCGGUAAUGGCGAAUGGGACCAA [C33G C86A], the self-cleavage was 0.146.

Consider GGCCGGCAUGGUCCCAGCCUCCUCGCUGGCGCGGGCUGGGCAACAUUCCGAGGGGACCGUCCCCUCGGUAAUGGCGAAUGGGACCGA [C33G C86G], for which the self-cleavage is 0.151.

GGCCGGCAUGGUCCCAGCCUCCUCGCUGGCGCGGGCUGGGCAACAUUCCGAGGGGACCGUCCCCUCGGUAAUGGCGAAUGGGACACA [C33G C85A]: the self-cleavage stood at 0.175.

Consider GGCCGGCAUGGUCCCAGCCUCCUCGCUGGCGCGGGCUGGGCAACAUUCCGAGGGGACCGUCCCCUCGGUAAUGGCGAAUGGGACUCA [C33G C85U], for which the self-cleavage stood at 0.122.
